# Experimental data published in the Immune Epitope Database (IEDB).
# pIC50, pKd: −log10 of the molar value.
# Tests used:
# HLA-B*18:01 [1] = assay: IEDB peptide-MHC binding, purified MHC/competitive/radioactivity; filed as Kd, often an IC50 or EC50 that approximates it; ≥ and ≤ were set here for values at or beyond the usual limits of such assays
# HLA-B*40:01 [2] = assay: as above
# HLA-B*40:02 = assay: as above
# HLA-B*44:02 = assay: as above
# HLA-B*44:03 = assay: as above
# HLA-B*45:01 = assay: as above
# HLA-A*02:03 = assay: IEDB peptide-MHC binding, purified MHC/direct/fluorescence; filed as Kd, often an IC50 or EC50 that approximates it; ≥ and ≤ were set here for values at or beyond the usual limits of such assays; conditions: source organism: Zaire ebolavirus
# HLA-A*02:11 = assay: as above; conditions: source organism: Zaire ebolavirus
# HLA-A*02:12 = assay: as above; conditions: source organism: Zaire ebolavirus
# HLA-A*02:16 = assay: as above; conditions: source organism: Zaire ebolavirus
# HLA-A*02:19 = assay: as above; conditions: source organism: Zaire ebolavirus
# HLA-A*03:01 = assay: as above; conditions: source organism: Zaire ebolavirus
# HLA-A*24:03 = assay: as above; conditions: source organism: Zaire ebolavirus
# HLA-A*29:02 = assay: as above; conditions: source organism: Zaire ebolavirus
# HLA-A*68:02 [3] = assay: as above; conditions: source organism: Zaire ebolavirus
# HLA-B*40:01 [4] = assay: as above; conditions: source organism: Reston ebolavirus - Reston
# HLA-A*02:01 [5] = assay: IEDB peptide-MHC binding, purified MHC/competitive/fluorescence; filed as Kd, often an IC50 or EC50 that approximates it; ≥ and ≤ were set here for values at or beyond the usual limits of such assays; conditions: source organism: Zaire ebolavirus
# HLA-A*26:01 = assay: as above; conditions: source organism: Zaire ebolavirus
# HLA-B*15:01 = assay: as above; conditions: source organism: Zaire ebolavirus
# HLA-B*15:17 = assay: as above; conditions: source organism: Zaire ebolavirus
# HLA-B*27:03 = assay: as above; conditions: source organism: Zaire ebolavirus
# HLA-B*39:01 = assay: as above; conditions: source organism: Zaire ebolavirus
# HLA-B*46:01 = assay: as above; conditions: source organism: Zaire ebolavirus
# HLA-B*51:01 = assay: as above; conditions: source organism: Zaire ebolavirus
# HLA-B*57:01 = assay: as above; conditions: source organism: Zaire ebolavirus
# HLA-A*68:02 [6] = assay: as above; conditions: source organism: Burkholderia mallei NCTC 10229
# HLA-A*24:02 = assay: IEDB peptide-MHC binding, purified MHC/competitive/fluorescence; ≥ and ≤ were set here for values at or beyond the usual limits of such assays; conditions: source organism: Sudan ebolavirus
# HLA-A*69:01 = assay: IEDB peptide-MHC binding, purified MHC/competitive/fluorescence; filed as Kd, often an IC50 or EC50 that approximates it; ≥ and ≤ were set here for values at or beyond the usual limits of such assays; conditions: source organism: Zaire ebolavirus
# HLA-B*18:01 [7] = assay: as above; conditions: source organism: Zaire ebolavirus
# HLA-A*02:01 [8] = assay: IEDB peptide-MHC binding, purified MHC/competitive/radioactivity; filed as Kd, often an IC50 or EC50 that approximates it; ≥ and ≤ were set here for values at or beyond the usual limits of such assays; conditions: source organism: Dengue virus 2 Jamaica/1409/1983
# HLA-A*02:17 = assay: as above; conditions: source organism: Dengue virus 2 Jamaica/1409/1983
# [9] = source organism: Mammarenavirus brazilense
# [10] = source organism: Mammarenavirus juninense
# [11] = source organism: Mammarenavirus machupoense
# [12] = source organism: SARS coronavirus Tor2
# [13] = source organism: Lymphocytic choriomeningitis virus (strain WE)
sequence,measurement,setting,value
AENGELTEI,pKd,HLA-B*18:01 [1]; [9],≤ 4.11
same,pKd,HLA-B*40:01 [2]; [9],5.69
same,pKd,HLA-B*40:02; [9],7.32
same,pKd,HLA-B*44:02; [9],6.74
same,pKd,HLA-B*44:03; [9],6.50
same,pKd,HLA-B*45:01; [9],7.13
DEMVCKWLL,pKd,HLA-A*02:03,≤ 4.70
same,pKd,HLA-A*02:11,≤ 4.70
same,pKd,HLA-A*02:12,≤ 4.70
same,pKd,HLA-A*02:16,≤ 4.70
same,pKd,HLA-A*02:19,≤ 4.70
same,pKd,HLA-A*03:01,≤ 4.70
same,pKd,HLA-A*24:03,≤ 4.70
same,pKd,HLA-A*29:02,≤ 4.70
same,pKd,HLA-A*68:02 [3],≤ 4.70
same,pKd,HLA-B*40:01 [4],6.41
same,pKd,HLA-A*02:01 [5],≤ 4.70
same,pKd,HLA-A*26:01,≤ 4.70
same,pKd,HLA-B*15:01,≤ 4.70
same,pKd,HLA-B*15:17,≤ 4.70
same,pKd,HLA-B*27:03,≤ 4.70
same,pKd,HLA-B*39:01,≤ 4.70
same,pKd,HLA-B*46:01,≤ 4.70
same,pKd,HLA-B*51:01,≤ 4.70
same,pKd,HLA-B*57:01,≤ 4.70
DETKKQVNLM,pKd,HLA-B*18:01 [1]; [10],5.05
same,pKd,HLA-B*40:01 [2]; [10],4.84
same,pKd,HLA-B*40:02; [10],≤ 4.15
same,pKd,HLA-B*44:02; [10],≤ 4.19
same,pKd,HLA-B*44:03; [10],≤ 4.15
same,pKd,HLA-B*45:01; [10],≤ 4.48
EEVLDVCPL,pKd,HLA-B*18:01 [1]; [11],6.43
same,pKd,HLA-B*40:01 [2]; [11],7.15
same,pKd,HLA-B*40:02; [11],7.07
same,pKd,HLA-B*44:02; [11],4.86
same,pKd,HLA-B*44:03; [11],5.26
same,pKd,HLA-B*45:01; [11],5.61
ELWDPSTEA,pKd,HLA-A*68:02 [6],7.11
EWAENCYNL,pIC50,HLA-A*24:02,5.19
same,pKd,HLA-A*02:03,≤ 4.70
same,pKd,HLA-A*02:11,≤ 4.70
same,pKd,HLA-A*02:12,≤ 4.70
same,pKd,HLA-A*02:16,≤ 4.70
same,pKd,HLA-A*02:19,≤ 4.70
same,pKd,HLA-A*03:01,≤ 4.70
same,pKd,HLA-A*24:03,≤ 4.70
same,pKd,HLA-A*29:02,≤ 4.70
same,pKd,HLA-A*68:02 [3],≤ 4.70
same,pKd,HLA-A*02:01 [5],≤ 4.70
same,pKd,HLA-A*26:01,≤ 4.70
same,pKd,HLA-A*69:01,≤ 4.70
same,pKd,HLA-B*15:01,≤ 4.70
same,pKd,HLA-B*15:17,≤ 4.70
same,pKd,HLA-B*18:01 [7],≤ 4.70
same,pKd,HLA-B*27:03,≤ 4.70
same,pKd,HLA-B*39:01,≤ 4.70
same,pKd,HLA-B*46:01,≤ 4.70
same,pKd,HLA-B*51:01,≤ 4.70
same,pKd,HLA-B*57:01,≤ 4.70
FEEAALCTFL,pKd,HLA-B*18:01 [1]; [12],6.32
same,pKd,HLA-B*40:01 [2]; [12],8.70
same,pKd,HLA-B*40:02; [12],7.85
same,pKd,HLA-B*44:02; [12],7.02
same,pKd,HLA-B*44:03; [12],7.34
same,pKd,HLA-B*45:01; [12],6.79
KMEKASFIEV,pKd,HLA-A*02:01 [8],6.84
same,pKd,HLA-A*02:17,5.73
LDVLCPSSL,pKd,HLA-B*18:01 [1]; [13],≤ 4.11
same,pKd,HLA-B*40:01 [2]; [13],≤ 4.63
same,pKd,HLA-B*40:02; [13],6.31
same,pKd,HLA-B*44:02; [13],≤ 4.65
same,pKd,HLA-B*44:03; [13],≤ 4.11
same,pKd,HLA-B*45:01; [13],≤ 4.11
